# Test results reported in US20240167082A1.
# Biological target: CD3 (cell surface marker on Jurkat cells and on Ramos cells) (human) (UniProt P07766)
# Test: cell-based or functional assay
# UniProt P07766, sequence (P07766 23-207): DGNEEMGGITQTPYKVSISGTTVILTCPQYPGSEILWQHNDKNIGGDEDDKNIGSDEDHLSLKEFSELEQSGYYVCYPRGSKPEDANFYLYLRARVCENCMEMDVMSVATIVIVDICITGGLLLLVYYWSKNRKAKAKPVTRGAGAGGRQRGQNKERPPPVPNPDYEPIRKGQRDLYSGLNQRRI
substance,measurement,value
"TotalSeqB anti-CD3 antibody (Biolegend cat no. 300477; anti-human CD3-totalseqB Ab, clone UCHT1)",share of drops with labelled cells that cross the Cy5 fluorescence threshold,> 95%
same,time at which drops cross the Cy5 fluorescence threshold,20 to 50 min
same,"time at which drops cross the Cy5 fluorescence threshold, Jurkat cells in droplets",20 to 38 min
same,time to Cy5 fluorescence in drops with Jurkat cells from a mixed Jurkat and mouse pool,20 min
